± gives the uncertainty stated by the source.

Our source for the abundance fitness values is the Human Domainome abundance scans (Beltran et al. 2025).

To fix the notation:
B1: Nucleosome-remodeling factor subunit BPTF, residues 2862 to 2918; numbered along this chain, Q12830 (parent)
chain: TKKDTKLYCICKTPYDESKFYIGCDRCQNWYHGRCVGILQSEAELIDEYVCPQCQST
B2: Segment polarity protein dishevelled homolog DVL-3, residues 2 to 81; numbered along this chain, Q92997 (parent)
chain: GETKIIYHLDGQETPYLVKLPLPAERVTLADFKGVLQRPSYKFFFKSMDDDFGVVKEEISDDNAKLPCFNGRVVSWLVSA

The variants in the first series derive from B1. Description: abundance fitness (aPCA) (normalised: wild type 0, dead -1); higher = more abundant; growth selection in yeast, the domain comes from the species named. The conditions noted are these: Homo sapiens.
Take TKKDTKLYCICKTPYDESKFYIGCDRCQNWYHGRCVGILQSEAELIDEYVCPQCQYT: the abundance fitness was -0.191 ± 0.45.

Regarding TKKDTKLYCICKTPYDESKFYIGCDRCQNWYHGRCVGILQSEAELIDEYVCPQCQSY, the abundance fitness is -0.33 ± 0.28.

For the variant TKKDTKLYCICKTPYDESKFYIGCDRCQNWYHGRCVGILQSEAELIDEYVCPQCQSP, the abundance fitness is -0.044 ± 0.16.

For the variant TKKDTKLYCICKTPYDESKFYIGCDRCQNWYHGRCVGILQSEAELIDEYVCPQCQSS, the abundance fitness stood at 0.068 ± 0.11.

Consider TKKDTKLYCICKTPYDESKFYIGCDRCQNWYHGRCVGILQSEAELIDEYVCPQCQSH, for which the abundance fitness was -0.172 ± 0.32.

Take TKKDTKLYCICKTPYDESKFYIGCDRCQNWYHGRCVGILQSEAELIDEYVCPQCQSL: the abundance fitness is -0.569 ± 0.28.

Take TKKDTKLYCICKTPYDESKFYIGCDRCQNWYHGRCVGILQSEAELIDEYVCPQCQSR: the abundance fitness was -0.106 ± 0.17.

In the case of TKKDTKLYCICKTPYDESKFYIGCDRCQNWYHGRCVGILQSEAELIDEYVCPQCQSC, the abundance fitness was -0.003 ± 0.24.

On to TKKDTKLYCICKTPYDESKFYIGCDRCQNWYHGRCVGILQSEAELIDEYVCPQCQSA, for which the abundance fitness was 0.024 ± 0.091.

On to TKKDTKLYCICKTPYDESKFYIGCDRCQNWYHGRCVGILQSEAELIDEYVCPQCQSM, for which the abundance fitness was -0.509 ± 0.36.

Turning to TKKDTKLYCICKTPYDESKFYIGCDRCQNWYHGRCVGILQSEAELIDEYVCPQCQSE, the abundance fitness is -0.022 ± 0.21.

As to TKKDTKLYCICKTPYDESKFYIGCDRCQNWYHGRCVGILQSEAELIDEYVCPQCQSI, the abundance fitness was -0.115 ± 0.1.

Regarding TKKDTKLYCICKTPYDESKFYIGCDRCQNWYHGRCVGILQSEAELIDEYVCPQCQSG, the abundance fitness is -0.16 ± 0.18.

With TKKDTKLYCICKTPYDESKFYIGCDRCQNWYHGRCVGILQSEAELIDEYVCPQCQSQ, the abundance fitness is -0.469 ± 0.43.

Consider TKKDTKLYCICKTPYDESKFYIGCDRCQNWYHGRCVGILQSEAELIDEYVCPQCQSV, for which the abundance fitness was -0.052 ± 0.14.

The next series covers variants of B2. The series is described as above. Particulars: Homo sapiens.
With GSTKIIYHLDGQETPYLVKLPLPAERVTLADFKGVLQRPSYKFFFKSMDDDFGVVKEEISDDNAKLPCFNGRVVSWLVSA, the abundance fitness is -0.082 ± 0.059.

Regarding GMTKIIYHLDGQETPYLVKLPLPAERVTLADFKGVLQRPSYKFFFKSMDDDFGVVKEEISDDNAKLPCFNGRVVSWLVSA, the abundance fitness is -0.281 ± 0.093.

As for GRTKIIYHLDGQETPYLVKLPLPAERVTLADFKGVLQRPSYKFFFKSMDDDFGVVKEEISDDNAKLPCFNGRVVSWLVSA, the abundance fitness was -0.579 ± 0.072.

Turning to GWTKIIYHLDGQETPYLVKLPLPAERVTLADFKGVLQRPSYKFFFKSMDDDFGVVKEEISDDNAKLPCFNGRVVSWLVSA, the abundance fitness was -0.121 ± 0.076.

Regarding GCTKIIYHLDGQETPYLVKLPLPAERVTLADFKGVLQRPSYKFFFKSMDDDFGVVKEEISDDNAKLPCFNGRVVSWLVSA, the abundance fitness is -0.038 ± 0.08.

For the variant GGTKIIYHLDGQETPYLVKLPLPAERVTLADFKGVLQRPSYKFFFKSMDDDFGVVKEEISDDNAKLPCFNGRVVSWLVSA, the abundance fitness is -0.62 ± 0.068.

In the case of GQTKIIYHLDGQETPYLVKLPLPAERVTLADFKGVLQRPSYKFFFKSMDDDFGVVKEEISDDNAKLPCFNGRVVSWLVSA, the abundance fitness was -0.194 ± 0.085.

In the case of GYTKIIYHLDGQETPYLVKLPLPAERVTLADFKGVLQRPSYKFFFKSMDDDFGVVKEEISDDNAKLPCFNGRVVSWLVSA, the abundance fitness is -0.049 ± 0.083.

Turning to GPTKIIYHLDGQETPYLVKLPLPAERVTLADFKGVLQRPSYKFFFKSMDDDFGVVKEEISDDNAKLPCFNGRVVSWLVSA, the abundance fitness is -0.491 ± 0.11.

With GATKIIYHLDGQETPYLVKLPLPAERVTLADFKGVLQRPSYKFFFKSMDDDFGVVKEEISDDNAKLPCFNGRVVSWLVSA, the abundance fitness is -0.511 ± 0.077.

Take GLTKIIYHLDGQETPYLVKLPLPAERVTLADFKGVLQRPSYKFFFKSMDDDFGVVKEEISDDNAKLPCFNGRVVSWLVSA: the abundance fitness was -0.341 ± 0.07.

As for GTTKIIYHLDGQETPYLVKLPLPAERVTLADFKGVLQRPSYKFFFKSMDDDFGVVKEEISDDNAKLPCFNGRVVSWLVSA, the abundance fitness was -0.079 ± 0.066.

Consider GHTKIIYHLDGQETPYLVKLPLPAERVTLADFKGVLQRPSYKFFFKSMDDDFGVVKEEISDDNAKLPCFNGRVVSWLVSA, for which the abundance fitness is -0.164 ± 0.1.

GKTKIIYHLDGQETPYLVKLPLPAERVTLADFKGVLQRPSYKFFFKSMDDDFGVVKEEISDDNAKLPCFNGRVVSWLVSA: the abundance fitness was -0.723 ± 0.13.

In the case of GDTKIIYHLDGQETPYLVKLPLPAERVTLADFKGVLQRPSYKFFFKSMDDDFGVVKEEISDDNAKLPCFNGRVVSWLVSA, the abundance fitness was -0.516 ± 0.11.

Take GNTKIIYHLDGQETPYLVKLPLPAERVTLADFKGVLQRPSYKFFFKSMDDDFGVVKEEISDDNAKLPCFNGRVVSWLVSA: the abundance fitness came to 0.052 ± 0.09.

In the case of GVTKIIYHLDGQETPYLVKLPLPAERVTLADFKGVLQRPSYKFFFKSMDDDFGVVKEEISDDNAKLPCFNGRVVSWLVSA, the abundance fitness is -0.129 ± 0.051.

Regarding GEEKIIYHLDGQETPYLVKLPLPAERVTLADFKGVLQRPSYKFFFKSMDDDFGVVKEEISDDNAKLPCFNGRVVSWLVSA, the abundance fitness was -0.638 ± 0.1.

On to GEKKIIYHLDGQETPYLVKLPLPAERVTLADFKGVLQRPSYKFFFKSMDDDFGVVKEEISDDNAKLPCFNGRVVSWLVSA, for which the abundance fitness is -0.635 ± 0.12.

Turning to GEPKIIYHLDGQETPYLVKLPLPAERVTLADFKGVLQRPSYKFFFKSMDDDFGVVKEEISDDNAKLPCFNGRVVSWLVSA, the abundance fitness is -0.509 ± 0.092.

GEMKIIYHLDGQETPYLVKLPLPAERVTLADFKGVLQRPSYKFFFKSMDDDFGVVKEEISDDNAKLPCFNGRVVSWLVSA: the abundance fitness is -0.683 ± 0.12.
